# PMC11652653, “SON-1010: an albumin-binding IL-12 fusion protein that improves cytokine half-life, targets tumors, and enhances therapeutic efficacy” (Frontiers in Immunology, 2024)
# B1: secreted protein acidic and rich in cysteine (natural protein, UniProt P09486 18-303, looked up)
# chain: APQQEALPDETEVVEETVAEVTEVSVGANPVQVEVGEFDDGAEETEEEVVAENPCQNHHCKHGKVCELDENNTPMCVCQDPTSCPAPIGEFEKVCSNDNKTFDSSCHFFATKCTLEGTKKGHKLHLDYIGPCKYIPPCLDSELTEFPLRMRDWLKNVLVTLYERDEDNNLLTEKQKLRVKKIHENEKRLEAGDHPVELLARDFEKNYNMYIFPVHWQFGQLDQHPIDGYLSHTELAPLRAPLIPMEHCTTRFFETCDLDNDKYIALDEWAGCFGIKQKDIDKDLVI
# notes: SPARC (secreted protein acidic and rich in cysteine); also called SPARC
# Molecular target: T1, human serum albumin (human, UniProt P02768 25-609)
# T1 construct: human serum albumin (HSA); also called HSA; rHSA
# Assay: SPR; HSA bound to the chip, SON-1010 added, then SPARC (ternary complex); pH 6.0
# Settings: both partners purified
binder,measurement,value
B1,Kd,10 nM
